{"source": "paper PMC12344017", "about": "(Nature Communications, 2025)", "proteins": {"B1": {"name": "MscS/YnaI chimera (other, E. coli | Escherichia coli, UniProt P0C0S1 1-31, looked up)", "chain": "MEDLNVVDSINGAGSWLVANQALLLSYAVNIIDFICTSLIAVILTIKLFLLINQFEKQQIKKGRDITSARIMSRIIKITIIVVLVLLYGEHFGMSLSGLLTFGGIGGLAVGMAGKDILSNFFSGIMLYFDRPFSIGDWIRSPDRNIEGTVAEIGWRITKITTFDNRPLYVPNSLFSSISVENPGRMTNRRITTTIGLRYEDAAKVGVIVEAVREMLKNHPAIDQRQTLLVYFNQFADSSLNIMVYCFTKTTVWAEWLAAQQDVYLKIIDIVQSHGADFAFPSQTLYMDNITPPEQGR"}}, "target": "the molecule itself", "experiment": "cryo-EM structure", "data": [{"protein": "B1", "values": [{"measurement": "binding result", "value": "binds"}]}]}
